The text below walks through data of paper PMC5003112 (Nature chemical biology, 2016).

The series “crystal structure” concerns the molecule itself. The experiment in a line: crystal structure.
The series “SEC” deals with the molecule itself. Kind of series: SEC.

B1: Escherichia coli NudC (crystallization construct) (enzyme, E. coli)
chain: MDRIIEKLDHGWWVVSHEQKLWLPKGELPYGEAANFDLVGQRALQIGEWQGEPVWLVQQQRRHDMGSVRQVIDLDVGLFQLAGRGVQLAEFYRSHKYCGYCGHEMYPSKTEWAMLCSHCRERYYPQIAPCIIVAIRRDDSILLAQHTRHRNGVHTVLAGFVEVGETLEQAVAREVMEESGIKVKNLRYVTSQPWPFPQSLMTAFMAEYDSGDIVIDPKELLEANWYRYDDLPLLPPPGTVARRLIEDTVAMCRAEYE
In the case of B1, the stoichiometry N (as a rule, a count of units in the complex or per binding partner) in the series “crystal structure” was 2.

B2: E. coli NudC Y188Q (enzyme, E. coli K-12, UniProt P32664 1-257, looked up)
chain: MDRIIEKLDHGWWVVSHEQKLWLPKGELPYGEAANFDLVGQRALQIGEWQGEPVWLVQQQRRHDMGSVRQVIDLDVGLFQLAGRGVQLAEFYRSHKYCGYCGHEMYPSKTEWAMLCSHCRERYYPQIAPCIIVAIRRDDSILLAQHTRHRNGVHTVLAGFVEVGETLEQAVAREVMEESGIKVKNLRQVTSQPWPFPQSLMTAFMAEYDSGDIVIDPKELLEANWYRYDDLPLLPPPGTVARRLIEDTVAMCRAEYE
On to B2, for which the binding result in the series “SEC” is “binds”.

B3: E. coli NudC Y188A (enzyme, E. coli K-12, UniProt P32664 1-257, looked up)
chain: MDRIIEKLDHGWWVVSHEQKLWLPKGELPYGEAANFDLVGQRALQIGEWQGEPVWLVQQQRRHDMGSVRQVIDLDVGLFQLAGRGVQLAEFYRSHKYCGYCGHEMYPSKTEWAMLCSHCRERYYPQIAPCIIVAIRRDDSILLAQHTRHRNGVHTVLAGFVEVGETLEQAVAREVMEESGIKVKNLRAVTSQPWPFPQSLMTAFMAEYDSGDIVIDPKELLEANWYRYDDLPLLPPPGTVARRLIEDTVAMCRAEYE
Take B3: in the series “SEC”, the binding result is “binds”.
